{"source": "patent US20240376186A1", "about": "(AARHUS UNIVERSITET, published 2024)", "key": {"C3b [1]": {"molecular_target": "T1, C3b (human, UniProt P01024 23-667; P01024 749-1663)", "T1 construct": "also called human C3b", "T1 sequence (P01024 23-667 limits assumed, chain 1 of 2)": "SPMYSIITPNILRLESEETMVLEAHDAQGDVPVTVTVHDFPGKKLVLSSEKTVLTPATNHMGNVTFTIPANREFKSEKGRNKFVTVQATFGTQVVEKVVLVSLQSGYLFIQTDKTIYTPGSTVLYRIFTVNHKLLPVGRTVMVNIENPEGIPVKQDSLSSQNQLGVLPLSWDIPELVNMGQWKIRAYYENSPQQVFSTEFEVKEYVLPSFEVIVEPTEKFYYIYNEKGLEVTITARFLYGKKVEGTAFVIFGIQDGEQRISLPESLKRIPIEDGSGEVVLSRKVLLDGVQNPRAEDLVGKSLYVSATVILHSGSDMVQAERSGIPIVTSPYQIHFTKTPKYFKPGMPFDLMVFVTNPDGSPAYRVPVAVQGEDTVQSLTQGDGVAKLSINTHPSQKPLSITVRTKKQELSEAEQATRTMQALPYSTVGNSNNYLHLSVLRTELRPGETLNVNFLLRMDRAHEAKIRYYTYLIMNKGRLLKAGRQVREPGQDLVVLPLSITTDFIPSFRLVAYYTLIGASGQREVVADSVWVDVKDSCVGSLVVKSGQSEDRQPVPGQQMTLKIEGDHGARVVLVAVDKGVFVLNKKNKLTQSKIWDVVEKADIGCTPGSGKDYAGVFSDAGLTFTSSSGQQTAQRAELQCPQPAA", "T1 sequence (P01024 749-1663 limits assumed, chain 2 of 2)": "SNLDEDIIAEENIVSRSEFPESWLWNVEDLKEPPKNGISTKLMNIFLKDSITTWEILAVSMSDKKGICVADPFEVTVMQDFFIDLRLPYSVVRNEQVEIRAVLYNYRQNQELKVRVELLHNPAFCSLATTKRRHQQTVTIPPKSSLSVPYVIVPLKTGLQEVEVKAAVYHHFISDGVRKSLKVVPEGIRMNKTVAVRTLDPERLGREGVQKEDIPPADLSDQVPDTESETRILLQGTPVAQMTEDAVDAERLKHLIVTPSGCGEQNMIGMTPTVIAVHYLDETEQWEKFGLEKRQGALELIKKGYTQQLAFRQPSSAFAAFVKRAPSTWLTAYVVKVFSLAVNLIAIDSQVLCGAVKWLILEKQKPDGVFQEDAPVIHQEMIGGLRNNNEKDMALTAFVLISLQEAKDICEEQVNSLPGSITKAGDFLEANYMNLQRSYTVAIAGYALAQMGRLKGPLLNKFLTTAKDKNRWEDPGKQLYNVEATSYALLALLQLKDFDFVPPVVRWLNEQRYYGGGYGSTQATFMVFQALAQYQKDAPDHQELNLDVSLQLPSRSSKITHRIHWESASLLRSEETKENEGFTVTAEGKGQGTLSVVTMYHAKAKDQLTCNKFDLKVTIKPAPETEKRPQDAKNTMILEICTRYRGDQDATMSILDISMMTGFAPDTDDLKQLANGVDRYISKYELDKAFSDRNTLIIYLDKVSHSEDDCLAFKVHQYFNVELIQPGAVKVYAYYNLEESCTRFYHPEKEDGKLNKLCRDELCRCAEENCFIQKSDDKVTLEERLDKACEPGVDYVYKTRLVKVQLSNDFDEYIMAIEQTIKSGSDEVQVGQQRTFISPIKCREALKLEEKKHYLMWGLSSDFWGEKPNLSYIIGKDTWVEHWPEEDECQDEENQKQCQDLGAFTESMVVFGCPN", "experiment": "bio-layer interferometry, binder on anti-penta his biosensors; reference EWE-hC3Nb1 on C3b", "procedure": "FIGS. 8A-8B Bio-layer interferometry-based analysis of EWEμH. (FIG. 8A) Anti-penta his biosensors were coated with EWEμH. The sensors were transferred into a dilution series from 1.5625-50 nM C3b. (FIG. 8B) Anti-penta his biosensors were coated with EWEμH and transferred into an iC3b dilution series ranging from 3.125-50 nM.\n(§1) Bio-layer interferometry experiments. All experiments were performed in 20 mM HEPES pH 7.5, […]. All experiments were performed on an Octet RED96 (Fortébio Pall Corporation) instrument operating at 30° C., shaking at 1000 rpm. EWE-hC3Nb1, EWEμH or EWEnH was immobilized on anti-penta his biosensor (Fortebio Pall Corporation) and the sensors were transferred into dilution series of C3b or iC3b. Measurements of 0 nM analyte were subtracted from sensorgrams for normalization and the sensorgrams were fitted to a 1:1 binding model using the GraphPad Prism (version 6.01) software."}, "C3b [2]": {"molecular_target": "T1, C3b", "experiment": "size exclusion chromatography, 2-fold molar excess of EWE-hC3Nb1; SDS-PAGE of peak fractions confirmed the complex", "procedure": "(§2) Size exclusion chromatography assay. 200 μg C3b was mixed with a 2-fold molar excess of EWE-hC3Nb1 or left untreated. The mix was diluted to 400 μL in 20 mM HEPES pH 7.5, 150 mM NaCl and applied to a Superdex 200 increase (GE Healthcare) column equilibrated in dilution buffer. SEC assaying binding of EWE-hC3Nb1 to native C3 was performed similarly. Peak fraction were analyzed by SDS PAGE."}, "native C3": {"molecular_target": "T2, native C3 (human, UniProt P01024 23-667; P01024 668-1663)", "T2 construct": "also called Complement component 3", "T2 sequence (P01024 23-667, chain 1 of 2)": "as the sequence (P01024 23-667 limits assumed, chain 1 of 2) above", "T2 sequence (P01024 668-1663, chain 2 of 2)": "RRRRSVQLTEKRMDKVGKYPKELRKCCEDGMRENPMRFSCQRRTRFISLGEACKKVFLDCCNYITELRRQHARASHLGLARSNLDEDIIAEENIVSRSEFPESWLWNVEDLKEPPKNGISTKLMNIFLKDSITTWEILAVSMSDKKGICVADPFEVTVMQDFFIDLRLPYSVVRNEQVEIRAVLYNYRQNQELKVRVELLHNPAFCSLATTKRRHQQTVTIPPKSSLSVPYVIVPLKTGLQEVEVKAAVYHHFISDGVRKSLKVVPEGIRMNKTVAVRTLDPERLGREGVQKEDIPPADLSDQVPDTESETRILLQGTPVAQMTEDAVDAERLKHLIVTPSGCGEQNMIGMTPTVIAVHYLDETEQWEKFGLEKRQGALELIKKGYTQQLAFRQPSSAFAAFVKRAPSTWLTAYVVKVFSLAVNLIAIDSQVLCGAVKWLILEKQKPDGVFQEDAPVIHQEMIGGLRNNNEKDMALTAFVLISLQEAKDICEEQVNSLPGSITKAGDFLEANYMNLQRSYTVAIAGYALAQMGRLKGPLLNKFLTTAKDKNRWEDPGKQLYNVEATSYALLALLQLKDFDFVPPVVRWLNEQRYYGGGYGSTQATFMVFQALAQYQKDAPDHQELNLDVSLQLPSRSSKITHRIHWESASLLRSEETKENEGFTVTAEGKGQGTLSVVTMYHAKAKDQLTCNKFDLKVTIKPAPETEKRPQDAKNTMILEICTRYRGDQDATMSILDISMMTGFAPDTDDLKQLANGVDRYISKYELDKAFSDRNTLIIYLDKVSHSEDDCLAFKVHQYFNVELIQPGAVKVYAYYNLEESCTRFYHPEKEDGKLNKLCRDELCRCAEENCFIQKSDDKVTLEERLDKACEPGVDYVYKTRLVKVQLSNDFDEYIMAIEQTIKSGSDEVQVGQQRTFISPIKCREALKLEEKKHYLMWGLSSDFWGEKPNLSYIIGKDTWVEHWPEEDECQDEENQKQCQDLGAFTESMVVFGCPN", "experiment": "size exclusion chromatography", "procedure": "as §2"}, "C3b [3]": {"molecular_target": "T1, C3b", "experiment": "bio-layer interferometry, summary of affinities (FIG. 10)", "procedure": "FIGS. 9A-9B Bio-layer interferometry-based analysis of EWEnH. (FIG. 9A) Anti-penta his biosensors were coated with EWEnH. The sensors were transferred into a dilution series from 3.125-100 nM C3b. (FIG. 9B) Anti-penta his biosensors were coated with EWEnH. The iC3b concentration tested ranged from 6.25-100 nM.\nas §1"}}, "data": [{"binder": "EWEµH (other, expressed in HEK293 cells; also called EWEuH; fusion EWEµH; not shown: His tag implied by HisTrap purification and capture on anti-penta his biosensors) EWEQVQLVETGGGLVQAGGSLRLSCAASGSIFSINAMGWFRQAPGKEREFVATINRSGGRTYYADSVKGRFTISRDNGKNMVYLQMHSLKPEDTAIYYCAAGTGWSPQTDNEYNYWGQGTQVTVSSGGGGSGGGGSGGGGSGGGGSRPCGHPGDTPFGTFTLTGGNVFEYGVKAVYTCNEGYQLLGEINYRECDTDGWTNDIPICEVVKCLPVTAPENGKIVSSAMEPDREYHFGQAVRFVCNSGYKIEGDEEMHCSDDGFWSKEKPKCVEISCKSPDVINGSPISQKIIYKENERFQYKCNMGYEYSERGDAVCTESGWRPLPSCEEAGGGGGGGGGGGGGKCGPPPPIDNGDITSFPLSVYAPASSVEYQCQNLYQLEGNKRITCRNGQWSEPPKCLHPCVISREIMENYNIALRWTAKQKLYSRTGESVEFVCKRGYRLSSRSHTLRTTCWDGKLEYPTCAKRENLYFQG", "values": [{"measurement": "fold stronger binding than EWE-hC3Nb1", "setting": "C3b [1]", "value": "~10", "unit": "fold"}]}, {"binder": "EWE-hC3Nb1 (VHH, hC3Nb1 with an N-terminal Glu-Trp-Glu motif; expressed in E. coli; also called single domain antibody EWE-hC3Nb1; EWE-hC3Nb1 nanobody; not shown: His tag implied by HisTrap purification and capture on anti-penta his biosensors) VHH: QVQLVETGGGLVQAGGSLRLSCAASGSIFSINAMGWFRQAPGKEREFVATINRSGGRTYYADSVKGRFTISRDNGKNMVYLQMHSLKPEDTAIYYCAAGTGWSPQTDNEYNYWGQGTQVTVSS", "values": [{"measurement": "binding result", "setting": "C3b [2]", "value": "binds"}, {"measurement": "binding result", "setting": "native C3", "value": "no binding (tested: 2-fold molar excess of EWE-hC3Nb1)"}]}, {"binder": "EWEnH (other, expressed in HEK293 cells; also called fusion protein EWEnH; not shown: His tag implied by HisTrap purification and capture on anti-penta his biosensors) EWEQVQLVETGGGLVQAGGSLRLSCAASGSIFSINAMGWFRQAPGKEREFVATINRSGGRTYYADSVKGRFTISRDNGKNMVYLQMHSLKPEDTAIYYCAAGTGWSPQTDNEYNYWGQGTQVTVSSGGGGSGGGGSGGGGSGGGGSRPCGHPGDTPFGTFTLTGGNVFEYGVKAVYTCNEGYQLLGEINYRECDTDGWTNDIPICEVVKCLPVTAPENGKIVSSAMEPDREYHFGQAVRFVCNSGYKIEGDEEMHCSDDGFWSKEKPKCVEISCKSPDVINGSPISQKIIYKENERFQYKCNMGYEYSERGDAVCTESGWRPLPSCEEA", "values": [{"measurement": "binding result", "setting": "C3b [3]", "value": "binds"}]}]}
